Consider 10 molecules from patent EP4729546A1 (Jiangsu BioJeTay Biotechnology Co., Ltd., dated 2026).

Experiment [1] addresses huFXII-his (human) (UniProt P00748). Description: ELISA, huFXII-his coated at 1 µg/ml, HRP anti-human secondary, OD450.
For experiment [2], the target named is FXIIa (purchased from Enzyme Research Lab) (UniProt P00748). Kind of experiment: cell-based or functional assay.
Experiment [3] deals with huFXII-his (human) (UniProt P00748). Description: cell-based or functional assay.
Experiment [4] shares this target. Kind of experiment: cell-based or functional assay. This is another data set of the same source.
The target in experiment [5] is T1, huFXII-his (human, UniProt P00748 20-615).
T1 sequence (looked up): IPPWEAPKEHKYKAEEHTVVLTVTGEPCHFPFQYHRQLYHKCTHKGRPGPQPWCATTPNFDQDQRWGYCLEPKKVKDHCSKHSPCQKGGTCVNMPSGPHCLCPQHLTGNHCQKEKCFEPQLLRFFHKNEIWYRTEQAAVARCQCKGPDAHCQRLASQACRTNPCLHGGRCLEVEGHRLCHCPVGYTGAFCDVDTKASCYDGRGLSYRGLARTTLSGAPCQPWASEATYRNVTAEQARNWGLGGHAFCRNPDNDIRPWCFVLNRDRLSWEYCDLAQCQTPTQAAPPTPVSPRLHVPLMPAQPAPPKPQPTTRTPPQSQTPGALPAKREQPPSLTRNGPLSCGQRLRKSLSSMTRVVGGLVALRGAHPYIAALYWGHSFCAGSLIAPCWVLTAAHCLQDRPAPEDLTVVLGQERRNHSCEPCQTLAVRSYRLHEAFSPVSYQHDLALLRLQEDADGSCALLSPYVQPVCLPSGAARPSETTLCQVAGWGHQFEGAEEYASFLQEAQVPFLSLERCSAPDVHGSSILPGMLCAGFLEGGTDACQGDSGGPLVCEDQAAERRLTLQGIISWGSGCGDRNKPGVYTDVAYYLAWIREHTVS
Description: cell-based or functional assay.

The target in experiment [6] is T2, FXIIa (purchased from Enzyme Research Lab) (UniProt P00748 20-615, limits assumed).
T2 sequence (looked up): T1 sequence (looked up)
Description: cell-based or functional assay.

Positions count from the first letter of the chain named. Like-named read-outs stand apart in the source and are kept apart here.

On to CSL312 (antibody), for which the 50% effective concentration (EC50) in experiment [1] amounted to 0.421 mg/L. For the same molecule, the IC50 of inhibition of the cleavage of PK proenzyme (prekallikrein) by FXIIa, read with pKa substrate CS-3102 (OD405) in experiment [2] came out at 0.11 µM. For the same molecule, the IC50 of inhibition of cleavage of chemical substrate S2302 by FXIIa (OD405) in experiment [3] came to 0.0232 mg/L; in experiment [4], 0.0258 mg/L.

B1: FX-Y17 (antibody, V domains shown)
VH: EVQLLESGGGLVQPGGSLRLSCAGSGFSFGSQTMSWVRQAPGKGLEWVSSISVISGRTYYADSVKGRFTISRDNSKNTLYLQMNSLRAEDTAVYYCTKSHAFDVWGQGTMVTVSS
VL: EIVLTQSPATLSVSPGERATLSCRASQSVYSNLAWYQQKPGQAPRLLIYGASTRATGIPARFSGSGSGTEFTLTISSLQSEDFAVYYCQQYNKWPLSFGGGTKVEIK
For the molecule B1, the IC50 of inhibition of cleavage of chemical substrate S2302 by FXIIa (OD405) came to 0.0251 mg/L in experiment [3] and 0.0213 mg/L in experiment [4].

B2: FX-Y17-Y50 (antibody, V domains shown)
VH: B1 VH with T58R
VL: B1 VL with N32A, N92H
Consider B2, for which the “IC50 of inhibition of cleavage of chemical substrate S2302 by FXIIa (OD405)” value (from here on “IC50 of inhibition of cleavage … (OD405)”) in experiment [5] turned out to be 0.0225 mg/L.

B3: FX-Y17-Y45 (antibody, V domains shown)
VH: B1 VH with V53H, T97A
VL: B1 VL with N32A, Y91N, K93R
Turning to B3, the “IC50 of inhibition of the cleavage of PK proenzyme (prekallikrein) by FXIIa, read with pKa substrate CS-3102 (OD405)” value (shortened to “IC50 of inhibition of the cleavage … (OD405)”) in experiment [6] was found to be 0.0235 µM. Besides, the concentration giving a half-maximal response (EC50) in experiment [1] came to 0.358 mg/L. The same molecule had an IC50 of inhibition of cleavage of chemical substrate S2302 by FXIIa (OD405) in experiment [4] of 0.0221 mg/L.

B4: FX-Y17-Y34 (antibody, V domains shown)
VH: B1 VH with G56R, K98R
VL: B1 VL with Y30W, N92H
As to B4, the “IC50 of inhibition of the cleavage … (OD405)” value in experiment [6] was 0.0271 µM. In addition, the “IC50 of inhibition of cleavage … (OD405)” value in experiment [5] is 0.0282 mg/L.

B5: FX-Y17-Y26 (antibody, V domains shown)
VH: B1 VH
VL: B1 VL with N32A, N92H
Take B5: the “IC50 of inhibition of cleavage … (OD405)” value in experiment [5] turned out to be 0.0163 mg/L.

B6: FX-Y17-Y51 (antibody, V domains shown)
VH: B1 VH with T58N, K98R
VL: B1 VL with N32A, N92H
On to B6, for which, in experiment [5], the “IC50 of inhibition of cleavage … (OD405)” value is 0.0155 mg/L.

B7: FX-Y17-Y4 (antibody, V domains shown)
VH: B1 VH with I51S, S52H
VL: B1 VL with S31Y, N92H
On to B7, for which, in experiment [6], the “IC50 of inhibition of the cleavage … (OD405)” value is 0.0306 µM. In experiment [1], this molecule displayed an EC50 of 0.205 mg/L. The IC50 of inhibition of cleavage of chemical substrate S2302 by FXIIa (OD405) in experiment [4] stood at 0.0116 mg/L.

B8: FX-Y17-Y24 (antibody, V domains shown)
VH: B1 VH with V53Y, S99G
VL: B1 VL with N32A, N92H
For the molecule B8, the “IC50 of inhibition of cleavage … (OD405)” value in experiment [5] turned out to be 0.0166 mg/L.

B9: FX-Y39 (antibody, V domains shown)
VH: QVQLQQSGGGLVQTGGSLRLACAGTGFTFSDYSMNWVRQAPGKGLEWVSYISNSRSRSSKYYADSVKGRFTISRDNAKNSLYLQMNSLRAEDTAVYYCARIGYCKNGVCGGAYDYWGQGTLVTVSS
VL: EIVLTQSPSAMSASVGDRVTITCRASQAIRNNLAWFQQKPGKVPKRLMNTASSLESGVPSRFSGSGSGTEFTLTITSLQPEDFASYYCLQYHDSPWTFGQGTKLEIK
B9 had an IC50 of inhibition of cleavage of chemical substrate S2302 by FXIIa (OD405) in experiment [3] of 0.0398 mg/L.
